Residue numbers refer to the chain shown, from its start.
Key:
Experiment in all cases: cleavage_in_vitro
[1] = tested on: T1, BsmBI-HF N185Y/R232A (Bacillus stearothermophilus); conditions: NEB4, 55 C, Mg2+; listed as BsmBI; FI NEB1-3: 2, >=500, >=64
T1 sequence: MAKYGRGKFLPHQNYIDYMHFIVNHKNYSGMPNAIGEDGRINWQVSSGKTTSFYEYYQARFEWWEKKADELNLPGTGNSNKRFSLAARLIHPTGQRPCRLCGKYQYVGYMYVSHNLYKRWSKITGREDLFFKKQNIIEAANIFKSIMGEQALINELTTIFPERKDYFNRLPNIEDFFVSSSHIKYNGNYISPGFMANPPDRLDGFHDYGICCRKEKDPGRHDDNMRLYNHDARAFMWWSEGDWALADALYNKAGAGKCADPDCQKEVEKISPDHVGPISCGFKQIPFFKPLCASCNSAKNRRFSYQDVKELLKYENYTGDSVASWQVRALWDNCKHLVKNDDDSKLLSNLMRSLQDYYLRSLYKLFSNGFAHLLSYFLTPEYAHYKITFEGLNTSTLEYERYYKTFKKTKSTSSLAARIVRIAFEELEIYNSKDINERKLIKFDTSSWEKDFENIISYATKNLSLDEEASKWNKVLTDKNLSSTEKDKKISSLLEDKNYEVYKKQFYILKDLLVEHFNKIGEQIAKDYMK

[2] = tested on: T2, BspQI (Bacillus sphaericus); conditions: NEB4, 50 C, Mg2+; FI NEB1-3: 2, 16, 32
T2 sequence: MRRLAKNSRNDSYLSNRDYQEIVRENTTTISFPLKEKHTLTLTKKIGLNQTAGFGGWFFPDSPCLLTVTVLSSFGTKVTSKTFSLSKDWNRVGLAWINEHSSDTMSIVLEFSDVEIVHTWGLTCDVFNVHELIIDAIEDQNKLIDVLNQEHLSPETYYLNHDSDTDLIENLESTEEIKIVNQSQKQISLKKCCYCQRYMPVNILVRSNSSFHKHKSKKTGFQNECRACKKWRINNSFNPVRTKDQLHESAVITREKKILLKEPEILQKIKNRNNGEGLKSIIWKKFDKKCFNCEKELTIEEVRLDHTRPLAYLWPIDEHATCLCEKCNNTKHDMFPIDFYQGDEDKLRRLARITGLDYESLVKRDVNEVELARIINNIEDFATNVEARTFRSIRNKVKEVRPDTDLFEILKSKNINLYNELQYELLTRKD

[3] = molecular target: T3, PstI (Providencia stuartii 164) (UniProt P00640); conditions: NEB4, 37 C, Mg2+; FI NEB1-3: 64, 32, 120
T3 sequence: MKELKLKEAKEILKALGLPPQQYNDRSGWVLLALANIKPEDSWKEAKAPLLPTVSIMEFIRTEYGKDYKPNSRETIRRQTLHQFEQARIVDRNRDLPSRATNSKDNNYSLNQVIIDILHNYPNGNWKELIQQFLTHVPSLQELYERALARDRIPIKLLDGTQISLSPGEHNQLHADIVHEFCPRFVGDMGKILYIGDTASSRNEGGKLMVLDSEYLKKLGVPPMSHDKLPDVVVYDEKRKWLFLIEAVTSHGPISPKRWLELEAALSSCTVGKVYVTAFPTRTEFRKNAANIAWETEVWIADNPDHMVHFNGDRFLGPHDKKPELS

[4] = molecular target: T4, PstI-HF D91A (Providencia stuartii 164) (UniProt P00640); conditions: NEB4, 37 C, Mg2+; FI NEB1-3: 1000, 4000, 4000
T4 sequence: T3 sequence with D91A

[5] = molecular target: T5, ScaI-HF H193A/S201F (Streptomyces caespitosus) (UniProt O52691); conditions: NEB4, 37 C, Mg2+; FI NEB1-3: 4000, 1000, 2000
T5 sequence: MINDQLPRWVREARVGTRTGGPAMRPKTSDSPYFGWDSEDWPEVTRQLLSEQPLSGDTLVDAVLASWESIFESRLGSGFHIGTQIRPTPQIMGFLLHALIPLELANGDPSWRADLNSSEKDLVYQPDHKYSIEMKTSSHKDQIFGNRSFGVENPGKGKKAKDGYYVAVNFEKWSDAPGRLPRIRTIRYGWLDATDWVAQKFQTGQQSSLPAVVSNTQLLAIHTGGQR

[6] = tested on: T6, SphI (Streptomyces phaeochromogenes); conditions: NEB4, 37 C, Mg2+; FI NEB1-3: 64, 32, 64
T6 sequence: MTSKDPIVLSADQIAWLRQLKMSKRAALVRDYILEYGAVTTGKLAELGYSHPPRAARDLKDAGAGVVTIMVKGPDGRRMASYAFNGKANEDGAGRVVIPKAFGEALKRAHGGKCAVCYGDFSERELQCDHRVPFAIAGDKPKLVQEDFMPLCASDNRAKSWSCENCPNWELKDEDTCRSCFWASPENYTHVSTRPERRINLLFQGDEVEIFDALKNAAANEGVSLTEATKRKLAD

lambda phage DNA
activity (fidelity index) [1]: > 500 | activity (fidelity index) [2]: 4 | activity (fidelity index) [3]: 8 | activity (fidelity index) [4]: 4000 | activity (fidelity index) [5]: 1000 | activity (fidelity index) [6]: 16
